Laboratory results reported in paper PMC4357705, “Human Rap1 modulates TRF2 attraction to telomeric DNA”.

Key:
[1] = target: Rap1 without His-tag, labelled with Alexa Fluor 488 (human) (UniProt Q9NYB0); assay: fluorescence polarisation; fluorescence anisotropy; TRF2noHis titrated into 100 nM Rap1noHis labelled with Alexa Fluor 488; 50 mM NaCl, 50 mM sodium phosphate pH 7.0, 25 C; concentration as TRF2 dimer
[2] = target: Rap1, full-length, N-terminal His6-tag, labelled with Alexa Fluor 594 (human) (UniProt Q9NYB0); assay: fluorescence polarisation; fluorescence anisotropy; TRF2 titrated into 100 nM Rap1 labelled with Alexa Fluor 594; 50 mM NaCl, 50 mM sodium phosphate pH 7.0 with 1 mM DTT; concentration as TRF2 dimer
[3] = target: Rap1, full-length, N-terminal His6-tag, labelled with Alexa Fluor 594 (human) (UniProt Q9NYB0); assay: fluorescence polarisation; fluorescence anisotropy; TRF2 titrated into 100 nM Rap1 labelled with Alexa Fluor 594; PBST (Phosphate Buffered Saline with Tween 20, ~140 mM NaCl); concentration as TRF2 dimer
Rap1 [4] = target: T1, Rap1 (human, UniProt Q9NYB0 1-399); assay: EMSA; up to Rap1:DNA 40:1; FA: 50 mM NaCl, 50 mM sodium phosphate pH 7.0, 25 °C, 7.5 nM DNA; EMSA: same buffer, 15 min on ice, 5% (or 4%) PAGE in 0.25x TBE at 4 °C; SPR: PBST; conditions: protein: recombinant; tags: N-terminal His6; label: Alexa Fluor 488 at 3' end of one strand; blunt
T1 sequence: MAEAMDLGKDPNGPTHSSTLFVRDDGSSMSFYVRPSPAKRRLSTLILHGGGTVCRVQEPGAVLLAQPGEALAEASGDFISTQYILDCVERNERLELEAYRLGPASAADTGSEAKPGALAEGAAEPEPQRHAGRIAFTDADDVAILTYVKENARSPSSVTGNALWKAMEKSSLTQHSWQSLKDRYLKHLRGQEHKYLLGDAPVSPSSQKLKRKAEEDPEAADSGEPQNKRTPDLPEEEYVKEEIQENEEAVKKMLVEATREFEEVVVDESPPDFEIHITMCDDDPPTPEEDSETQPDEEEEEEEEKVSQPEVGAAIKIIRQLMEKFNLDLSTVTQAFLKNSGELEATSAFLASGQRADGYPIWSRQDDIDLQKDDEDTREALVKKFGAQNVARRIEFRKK

Rap1 [5] = target: T1, Rap1; assay: SPR; PBST; FA: 50 mM NaCl, 50 mM sodium phosphate pH 7.0, 25 °C, 7.5 nM DNA; EMSA: same buffer, 15 min on ice, 5% (or 4%) PAGE in 0.25x TBE at 4 °C; SPR: PBST; conditions: protein: recombinant; tags: N-terminal His6; label: 5' biotin on S6; blunt
Rap1 [6] = target: T1, Rap1; assay: fluorescence anisotropy; FA: 50 mM NaCl, 50 mM sodium phosphate pH 7.0, 25 °C, 7.5 nM DNA; EMSA: same buffer, 15 min on ice, 5% (or 4%) PAGE in 0.25x TBE at 4 °C; SPR: PBST; conditions: protein: recombinant; tags: N-terminal His6; label: Alexa Fluor 488 (FA); 5' biotin on S6 in SPR; 3' overhang 6 nt
[7] = target: Telomeric Repeat binding Factor 2 (TRF2), full-length, N-terminal His6-tag (human); assay: SPR; TRF2 immobilised by amine coupling on ProteOn GLC chip; Rap1 as analyte (methods: 80-5 nM; key of Figure S4A: 160-10 nM); PBST; 240 s injection at 100 ul/min, 1200 s dissociation; equilibrium responses fitted with a simple bimolecular equilibrium model

Work on TRF2 without His-tag (natural protein) yielded a Kd [1] of 49 nM.

Molecule “Telomeric Repeat binding Factor 2 (TRF2), full-length, N-terminal His6-tag (natural protein)” has a Kd [2] of 44 nM and a Kd [3] of 64 nM.

B1: R2 (dsDNA)
DNA 1: GTTAGGGTTAGGGTTAG
DNA 2: CTAACCCTAACCCTAAC
modifications: 3'-C6 aminoalkyl linker on one strand
B1: no binding (Rap1 [4]).

B2: SR2 (dsDNA)
DNA 1: CTAACTTAGGGTTAGGGTTAG
DNA 2: CTAACCCTAACCCTAAGTTAG
B2: no binding (Rap1 [5]).

B3: Overhang_SR2 (mixed)
DNA 1: CTAACTTAGGGTTAGGGTTAGGGTTAG
DNA 2: CTAACCCTAACCCTAAGTTAG
B3: no binding (Rap1 [6]).

B4: Repressor activator protein 1 (Rap1), full-length, N-terminal His6-tag (natural protein)
chain: MAEAMDLGKDPNGPTHSSTLFVRDDGSSMSFYVRPSPAKRRLSTLILHGGGTVCRVQEPGAVLLAQPGEALAEASGDFISTQYILDCVERNERLELEAYRLGPASAADTGSEAKPGALAEGAAEPEPQRHAGRIAFTDADDVAILTYVKENARSPSSVTGNALWKAMEKSSLTQHSWQSLKDRYLKHLRGQEHKYLLGDAPVSPSSQKLKRKAEEDPEAADSGEPQNKRTPDLPEEEYVKEEIQENEEAVKKMLVEATREFEEVVVDESPPDFEIHITMCDDDPPTPEEDSETQPDEEEEEEEEKVSQPEVGAAIKIIRQLMEKFNLDLSTVTQAFLKNSGELEATSAFLASGQRADGYPIWSRQDDIDLQKDDEDTREALVKKFGAQNVARRIEFRKK
B4 showed a Kd [7] of 44 nM.

B5: R5 (dsDNA)
DNA 1: GTTAGGGTTAGGGTTAGGGTTAGGGTTAGGGTTAG
DNA 2: CTAACCCTAACCCTAACCCTAACCCTAACCCTAAC
modifications: 3'-C6 aminoalkyl linker on one strand
B5: no binding (Rap1 [4]).
